Experimental data from US20190071480A1 (Biogen, published 2019).
Each block holds one binder with its values, some of them ahead of it.

Legend:
[1] = molecular target: T1, extracellular domain of activin receptor type IIB (ActRIIBecd), biotinylated (Homo sapiens (Human), UniProt Q13705 27-117, amino-biotinylated with amine-PEG3-Biotin); experiment: BIAcore SPR as Example 5 (method not restated); SD ±0.67 nM
T1 construct: immobilised on a streptavidin-coated sensor chip; also called biotinylated ActRIIBecd; extracellular domain of ActRIIB
T1 sequence: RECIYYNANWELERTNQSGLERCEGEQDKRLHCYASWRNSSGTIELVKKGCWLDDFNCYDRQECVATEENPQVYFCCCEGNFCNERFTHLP
Description: (§1) Biosensor experiments. In one embodiment, experiments were performed on a BIAcore™ T100/T200 instrument (Pharmacia Biosensor AB) in the multichannel mode (serial flow path involving flow cells 1+2+3+4). Flow rate was 10 μl/min; temperature was 25° C.; and data were recorded at 2.5 points/s. All four segments of a sensor chip CMS were coated with streptavidin (Sigma) to a density of 2000 pg/mm² (2000 resonance units) by the aminocoupling procedure. ActRIIBecd (10 mg) and amine-PEG3-Biotin (10 mg, Pierce, Rockford, Ill.) were dissolved in 200 μl H₂O and 10 mg NaCNBH₃ was added to prepare biotinylated ActRIIBecd. The reaction mixture was heated at 70° C. for 24 h, after that a further 10 mg NaCNBH₃ was added and the reaction was heated at 70° C. for another 24 h. After cooling to room temperature, the mixture was desalted with the spin column (3,000 molecular weight cut off (MWCO)). […] Sensograms were recorded during flow of the analyte (the ActRIIBecd-associated polypeptides (i.e., domains) as previously described) first through flow cell 1 (control) then through flow cell 2 (biotinylated ActRIIBecd). […] The sensograms obtained at 1.11, 3.33, 10, 30, and 90 nM analyte were evaluated for equilibrium binding, association rate, and dissociation rate by using the programs supplied with the instrument (BIA evaluation 2.1; Software Handbook. 1995; Pharmacia Biosensor AB).

[2] = molecular target: T1, extracellular domain of activin …; experiment: Mean KD column of Table 5; method not restated (BIAcore as Example 5); species also listed in Table 4
Procedure, shortened: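 On a chip first coated with amine-coupled streptavidin (about 2000 RU), the biotin-conjugated receptor ectodomain was bound to 50-250 RU. Polypeptide solutions (1.11-90 nM, glycine buffer pH 4.5) passed over it at 10 μl/min and 25° C, and the resulting traces gave association rate, dissociation rate and equilibrium binding.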

[3] = molecular target: T1, extracellular domain of activin …; experiment: BIAcore SPR as Example 5 (method not restated); SD ±2.66 nM
Description: as §1

[4] = molecular target: T1, extracellular domain of activin …; experiment: BIAcore SPR as Example 5 (method not restated); SD ±1.30 nM
Description: as §1

[5] = molecular target: T1, extracellular domain of activin …; experiment: BIAcore SPR as Example 5 (method not restated); SD ±3.57 nM
Description: as §1

[6] = molecular target: T1, extracellular domain of activin …; experiment: BIAcore SPR as Example 5 (method not restated); SD ±1.39 nM
Description: as §1

[7] = molecular target: T1, extracellular domain of activin …; experiment: BIAcore SPR as Example 5 (method not restated); SD ±1.71 nM
Description: as §1

[8] = molecular target: T1, extracellular domain of activin …; experiment: BIAcore SPR as Example 5 (method not restated); SD ±1.43 nM
Description: as §1

[9] = molecular target: T1, extracellular domain of activin …; experiment: BIAcore SPR as Example 5 (method not restated); SD ±2.07 nM
Description: as §1

[10] = molecular target: T1, extracellular domain of activin …; experiment: BIAcore SPR as Example 5 (method not restated); SD ±1.33 nM
Description: as §1

[11] = molecular target: T1, extracellular domain of activin …; experiment: BIAcore SPR as Example 5 (method not restated); SD ±2.65 nM
Description: as §1

[12] = molecular target: T1, extracellular domain of activin …; experiment: BIAcore SPR as Example 5 (method not restated); SD ±1.04 nM
Description: as §1

[13] = molecular target: T1, extracellular domain of activin …; experiment: BIAcore SPR, biotinylated ActRIIBecd on chip; SD ±18.12 nM
Description: as §1

[14] = molecular target: T1, extracellular domain of activin …; experiment: BIAcore SPR, biotinylated ActRIIBecd on chip; SD ±17.89 nM
Description: as §1

Kd [1]: 4.77 nM | Kd [2]: 4.77 nM
B1: SEQ ID NO: 292, cysteine pairs C15-C80^a, C44-C112^a, C48-C114^a, C79-C79^b (designed binder)
chain: GQAKRKGYKRLKSSCKRHPLYVDFKDVGWNDHAVAPPGYHAFYCHGECPFPLADHLNSDNHAIVQTKVNSVNSKDPKACCVPTELSAPSPLYLDENEKPVLKNYQDMVVHGCGCR
modifications: disulfides C15-C80 (intra), C44-C112 (intra), C48-C114 (intra), C79-C79 (inter)
notes: homodimer by intermolecular disulfide

Kd [3]: 29 nM | Kd [2]: 29 nM
B2: SEQ ID NO: 292, cysteine pairs C79-C80^a (designed binder)
chain: GQAKRKGYKRLKSSCKRHPLYVDFKDVGWNDHAVAPPGYHAFYCHGECPFPLADHLNSDNHAIVQTKVNSVNSKDPKACCVPTELSAPSPLYLDENEKPVLKNYQDMVVHGCGCR
modifications: disulfides C79-C80 (intra)

Kd [4]: 5.54 nM | Kd [2]: 5.54 nM
B3: SEQ ID NO: 292, cysteine pairs C80-C114^b, C79-C112^b, C44-C48^a (designed binder)
chain: GQAKRKGYKRLKSSCKRHPLYVDFKDVGWNDHAVAPPGYHAFYCHGECPFPLADHLNSDNHAIVQTKVNSVNSKDPKACCVPTELSAPSPLYLDENEKPVLKNYQDMVVHGCGCR
modifications: disulfides C80-C114 (inter), C79-C112 (inter), C44-C48 (intra)
notes: as for B1

Kd [5]: 5.81 nM | Kd [2]: 5.81 nM
B4: SEQ ID NO: 292, cysteine pairs C15-C15^b, C79-C114^a, C80-C112^a, C44-C48^a (designed binder)
chain: GQAKRKGYKRLKSSCKRHPLYVDFKDVGWNDHAVAPPGYHAFYCHGECPFPLADHLNSDNHAIVQTKVNSVNSKDPKACCVPTELSAPSPLYLDENEKPVLKNYQDMVVHGCGCR
modifications: disulfides C15-C15 (inter), C79-C114 (intra), C80-C112 (intra), C44-C48 (intra)
notes: as for B1

Kd [6]: 5.14 nM | Kd [2]: 5.14 nM
B5: SEQ ID NO: 300, cysteine pairs C23-C27^a, C65-C65^b, C79-C112^a, C80-C114^a (designed binder)
chain: VDFKDVGWNDHAVAPPGYHAFYCHGECPFPLADHLNSDNHAIVQTKVNSVGQAKRKGYKRLKSSCKRHPLYNSKDPKACCVPTELSAPSPLYLDENEKPVLKNYQDMVVHGCGCR
modifications: disulfides C23-C27 (intra), C65-C65 (inter), C79-C112 (intra), C80-C114 (intra)
notes: as for B1

Kd [7]: 7.37 nM | Kd [2]: 7.37 nM
B6: SEQ ID NO: 300, cysteine pairs C23-C27^a, C65-C65^b, C79-C114^a, C80-C112^a (designed binder)
chain: VDFKDVGWNDHAVAPPGYHAFYCHGECPFPLADHLNSDNHAIVQTKVNSVGQAKRKGYKRLKSSCKRHPLYNSKDPKACCVPTELSAPSPLYLDENEKPVLKNYQDMVVHGCGCR
modifications: disulfides C23-C27 (intra), C65-C65 (inter), C79-C114 (intra), C80-C112 (intra)
notes: as for B1

Kd [8]: 5.98 nM | Kd [2]: 5.98 nM
B7: SEQ ID NO: 308, cysteine pairs C59-C59^b, C8-C41^a, C9-C43^a, C88-C92^a (designed binder)
chain: NSKDPKACCVPTELSAPSPLYLDENEKPVLKNYQDMVVHGCGCRGQAKRKGYKRLKSSCKRHPLYVDFKDVGWNDHAVAPPGYHAFYCHGECPFPLADHLNSDNHAIVQTKVNSV
modifications: disulfides C59-C59 (inter), C8-C41 (intra), C9-C43 (intra), C88-C92 (intra)
notes: as for B1

Kd [9]: 31.2 nM | Kd [2]: 31.2 nM
B8: SEQ ID NO: 308, cysteine pairs C8-C9^a (designed binder)
chain: NSKDPKACCVPTELSAPSPLYLDENEKPVLKNYQDMVVHGCGCRGQAKRKGYKRLKSSCKRHPLYVDFKDVGWNDHAVAPPGYHAFYCHGECPFPLADHLNSDNHAIVQTKVNSV
modifications: disulfides C8-C9 (intra)

Kd [10]: 6.11 nM | Kd [2]: 6.11 nM
B9: SEQ ID NO: 308, cysteine pairs C59-C59^b, C8-C43^a, C9-C41^a, C88-C92^a (designed binder)
chain: NSKDPKACCVPTELSAPSPLYLDENEKPVLKNYQDMVVHGCGCRGQAKRKGYKRLKSSCKRHPLYVDFKDVGWNDHAVAPPGYHAFYCHGECPFPLADHLNSDNHAIVQTKVNSV
modifications: disulfides C59-C59 (inter), C8-C43 (intra), C9-C41 (intra), C88-C92 (intra)
notes: as for B1

Kd [11]: 28.9 nM | Kd [2]: 28.9 nM
B10: SEQ ID NO: 316, cysteine pairs C8-C67^a (designed binder)
chain: NSKDPKACCVPTELSAPSPLYLDENEKPVLKNYQDMVVHGCGCRVDFKDVGWNDHAVAPPGYHAFYCHGECPFPLADHLNSDNHAIVQTKVNSVGQAKRKGYKRLKSSCKRHPLY
modifications: disulfides C8-C67 (intra)

Kd [12]: 6.17 nM | Kd [2]: 6.17 nM
B11: SEQ ID NO: 316, cysteine pairs C67-C71^a, C8-C43^a, C9-C41^a, C109-C109^b (designed binder)
chain: NSKDPKACCVPTELSAPSPLYLDENEKPVLKNYQDMVVHGCGCRVDFKDVGWNDHAVAPPGYHAFYCHGECPFPLADHLNSDNHAIVQTKVNSVGQAKRKGYKRLKSSCKRHPLY
modifications: disulfides C67-C71 (intra), C8-C43 (intra), C9-C41 (intra), C109-C109 (inter)
notes: as for B1

Kd [13]: 56 nM
Binder: VDFSDVGWNDWAVAPPGYHAFYCHGECPFPLADHLNSDNHAIVQTLVNSV [Clone No. 16 domain (ActRIIBecd-associated polypeptide)]

Kd [14]: 67.4 nM
Binder: VDFSDVGWNDWIVAPPGYHAFYCHGECPFPLADHLNSDNHAIVQTLVNSV [Clone No. 17 domain (ActRIIBecd-associated polypeptide)]
